Bridge positions count the residues as written; N and C are the ends. Square brackets hold non-standard residues; d marks the D form. Primed or numbered codes have the meaning given here. Ends that are not written are not given here. Glu‑DTPA‑Gd = N-terminal Glu-DTPA-Gd chelate (gadolinium DTPA complex on glutamic acid); Glu‑DTPA‑Gd″ = N-terminal chelate: Glu-DTPA-Gd (glutamic acid–DTPA gadolinium chelate); Glu‑DTPA‑Gd(3) = N-terminal gadolinium chelate Glu-DTPA-Gd; PEG(2O) = not defined here
Legend:
[1] = molecular target: T1, human collagen type I, acid soluble, extracted from placenta (Sigma C7774) (human, UniProt P02452 162-1218; P08123 80-1119); assay: % binding to collagen I
T1 construct: tissue extract, gelled and dried in wells; also called dried human collagen; h-Collagen

[2] = molecular target: T2, rat collagen, acid soluble, type I, rat tail (Upstate 08-115) (rat, UniProt P02454 152-1207; P02466 86-1125); assay: % binding to collagen I
T2 construct: tissue extract, gelled and dried in wells; also called dried rat collagen

[3] = molecular target: T1, human collagen type I, acid soluble, …; assay: dried collagen assay
Protocol: (§1) An additional 90 μL is reserved in a HPLC glass vial as a measure of the total concentration.

[4] = molecular target: T2, rat collagen, acid soluble, type I, rat …; assay: dried collagen assay
Protocol: as §1

T1 sequence (P02452 162-1218 limits assumed, chain 1 of 2): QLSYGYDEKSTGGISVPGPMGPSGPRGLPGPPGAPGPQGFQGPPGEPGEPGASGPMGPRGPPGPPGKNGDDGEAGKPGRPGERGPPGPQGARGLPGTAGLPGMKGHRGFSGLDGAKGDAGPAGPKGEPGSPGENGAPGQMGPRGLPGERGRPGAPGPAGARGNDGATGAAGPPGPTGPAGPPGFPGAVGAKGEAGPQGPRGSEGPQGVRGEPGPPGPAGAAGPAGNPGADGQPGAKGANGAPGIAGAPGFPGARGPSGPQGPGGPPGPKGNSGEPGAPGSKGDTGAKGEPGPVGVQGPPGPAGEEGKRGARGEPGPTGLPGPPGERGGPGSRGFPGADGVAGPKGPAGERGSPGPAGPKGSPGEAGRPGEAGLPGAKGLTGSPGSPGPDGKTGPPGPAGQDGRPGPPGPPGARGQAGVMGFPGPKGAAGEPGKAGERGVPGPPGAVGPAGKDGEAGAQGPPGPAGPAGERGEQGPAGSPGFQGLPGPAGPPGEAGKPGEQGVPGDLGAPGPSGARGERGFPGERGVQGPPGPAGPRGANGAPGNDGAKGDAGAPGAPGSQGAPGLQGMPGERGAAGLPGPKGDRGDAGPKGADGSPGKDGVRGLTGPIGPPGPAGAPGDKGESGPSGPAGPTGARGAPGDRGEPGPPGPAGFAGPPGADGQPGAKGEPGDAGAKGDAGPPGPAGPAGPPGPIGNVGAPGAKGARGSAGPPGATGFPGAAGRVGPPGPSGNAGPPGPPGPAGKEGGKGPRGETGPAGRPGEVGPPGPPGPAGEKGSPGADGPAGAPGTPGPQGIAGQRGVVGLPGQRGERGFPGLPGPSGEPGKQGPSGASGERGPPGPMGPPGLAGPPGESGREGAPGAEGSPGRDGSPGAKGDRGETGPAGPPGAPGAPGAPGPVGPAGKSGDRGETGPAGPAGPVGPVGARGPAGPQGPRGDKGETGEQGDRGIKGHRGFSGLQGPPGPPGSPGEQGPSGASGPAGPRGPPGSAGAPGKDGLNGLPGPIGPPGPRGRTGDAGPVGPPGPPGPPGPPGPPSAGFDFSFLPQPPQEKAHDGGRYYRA
T1 sequence (P08123 80-1119 limits assumed, chain 2 of 2): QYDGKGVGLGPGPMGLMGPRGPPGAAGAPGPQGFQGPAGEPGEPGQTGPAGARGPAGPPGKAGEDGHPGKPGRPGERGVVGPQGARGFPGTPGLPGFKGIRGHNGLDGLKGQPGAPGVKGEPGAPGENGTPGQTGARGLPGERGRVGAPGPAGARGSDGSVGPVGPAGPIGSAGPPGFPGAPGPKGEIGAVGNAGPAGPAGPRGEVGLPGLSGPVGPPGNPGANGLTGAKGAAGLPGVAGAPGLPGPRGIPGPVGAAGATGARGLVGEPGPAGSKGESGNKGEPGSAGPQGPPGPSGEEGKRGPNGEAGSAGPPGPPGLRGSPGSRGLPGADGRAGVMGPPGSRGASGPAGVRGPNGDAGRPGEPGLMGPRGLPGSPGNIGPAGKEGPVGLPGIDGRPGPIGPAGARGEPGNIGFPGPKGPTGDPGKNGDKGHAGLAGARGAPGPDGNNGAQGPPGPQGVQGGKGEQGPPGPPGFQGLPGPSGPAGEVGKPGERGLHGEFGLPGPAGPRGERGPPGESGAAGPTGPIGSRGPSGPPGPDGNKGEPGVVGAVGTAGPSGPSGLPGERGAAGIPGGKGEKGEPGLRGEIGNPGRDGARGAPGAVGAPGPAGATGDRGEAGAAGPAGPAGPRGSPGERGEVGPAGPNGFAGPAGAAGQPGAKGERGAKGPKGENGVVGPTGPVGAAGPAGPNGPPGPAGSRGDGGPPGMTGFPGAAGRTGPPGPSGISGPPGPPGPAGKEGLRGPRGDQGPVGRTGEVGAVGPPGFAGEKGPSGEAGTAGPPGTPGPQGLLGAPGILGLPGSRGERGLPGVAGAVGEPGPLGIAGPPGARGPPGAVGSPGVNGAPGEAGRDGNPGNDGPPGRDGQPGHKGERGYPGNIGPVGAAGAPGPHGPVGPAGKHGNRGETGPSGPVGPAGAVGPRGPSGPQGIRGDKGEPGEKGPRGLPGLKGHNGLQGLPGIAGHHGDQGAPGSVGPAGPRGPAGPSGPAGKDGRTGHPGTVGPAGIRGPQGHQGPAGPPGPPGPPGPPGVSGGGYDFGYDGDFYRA
T2 sequence (P02454 152-1207, chain 1 of 2): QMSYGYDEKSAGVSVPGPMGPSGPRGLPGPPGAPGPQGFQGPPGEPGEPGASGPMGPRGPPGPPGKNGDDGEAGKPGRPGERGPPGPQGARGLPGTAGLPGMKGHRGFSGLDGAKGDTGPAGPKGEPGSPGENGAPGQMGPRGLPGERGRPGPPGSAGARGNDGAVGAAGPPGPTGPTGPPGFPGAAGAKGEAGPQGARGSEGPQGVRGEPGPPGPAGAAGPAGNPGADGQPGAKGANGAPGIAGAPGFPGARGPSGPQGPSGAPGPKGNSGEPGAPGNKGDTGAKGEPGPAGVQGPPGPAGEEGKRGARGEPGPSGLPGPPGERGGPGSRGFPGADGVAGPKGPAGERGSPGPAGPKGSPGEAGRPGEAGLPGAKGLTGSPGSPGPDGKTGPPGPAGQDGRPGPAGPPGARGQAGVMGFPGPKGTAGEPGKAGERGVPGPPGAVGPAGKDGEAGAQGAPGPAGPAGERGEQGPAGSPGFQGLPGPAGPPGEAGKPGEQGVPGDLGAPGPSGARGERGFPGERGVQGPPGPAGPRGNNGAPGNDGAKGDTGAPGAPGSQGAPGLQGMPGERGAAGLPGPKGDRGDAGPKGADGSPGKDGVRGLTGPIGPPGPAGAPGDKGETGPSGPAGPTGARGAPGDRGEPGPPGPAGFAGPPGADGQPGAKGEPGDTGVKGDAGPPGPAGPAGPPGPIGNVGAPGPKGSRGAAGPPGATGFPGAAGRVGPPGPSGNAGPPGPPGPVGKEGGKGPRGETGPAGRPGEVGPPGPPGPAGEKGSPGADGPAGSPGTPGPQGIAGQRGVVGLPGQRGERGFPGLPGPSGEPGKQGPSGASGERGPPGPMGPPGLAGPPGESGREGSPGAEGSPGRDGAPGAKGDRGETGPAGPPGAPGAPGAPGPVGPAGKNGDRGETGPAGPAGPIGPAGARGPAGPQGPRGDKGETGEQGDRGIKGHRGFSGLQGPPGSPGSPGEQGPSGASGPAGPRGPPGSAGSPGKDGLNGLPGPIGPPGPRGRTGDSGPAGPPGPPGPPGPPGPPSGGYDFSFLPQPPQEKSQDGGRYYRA
T2 sequence (P02466 86-1125, chain 2 of 2): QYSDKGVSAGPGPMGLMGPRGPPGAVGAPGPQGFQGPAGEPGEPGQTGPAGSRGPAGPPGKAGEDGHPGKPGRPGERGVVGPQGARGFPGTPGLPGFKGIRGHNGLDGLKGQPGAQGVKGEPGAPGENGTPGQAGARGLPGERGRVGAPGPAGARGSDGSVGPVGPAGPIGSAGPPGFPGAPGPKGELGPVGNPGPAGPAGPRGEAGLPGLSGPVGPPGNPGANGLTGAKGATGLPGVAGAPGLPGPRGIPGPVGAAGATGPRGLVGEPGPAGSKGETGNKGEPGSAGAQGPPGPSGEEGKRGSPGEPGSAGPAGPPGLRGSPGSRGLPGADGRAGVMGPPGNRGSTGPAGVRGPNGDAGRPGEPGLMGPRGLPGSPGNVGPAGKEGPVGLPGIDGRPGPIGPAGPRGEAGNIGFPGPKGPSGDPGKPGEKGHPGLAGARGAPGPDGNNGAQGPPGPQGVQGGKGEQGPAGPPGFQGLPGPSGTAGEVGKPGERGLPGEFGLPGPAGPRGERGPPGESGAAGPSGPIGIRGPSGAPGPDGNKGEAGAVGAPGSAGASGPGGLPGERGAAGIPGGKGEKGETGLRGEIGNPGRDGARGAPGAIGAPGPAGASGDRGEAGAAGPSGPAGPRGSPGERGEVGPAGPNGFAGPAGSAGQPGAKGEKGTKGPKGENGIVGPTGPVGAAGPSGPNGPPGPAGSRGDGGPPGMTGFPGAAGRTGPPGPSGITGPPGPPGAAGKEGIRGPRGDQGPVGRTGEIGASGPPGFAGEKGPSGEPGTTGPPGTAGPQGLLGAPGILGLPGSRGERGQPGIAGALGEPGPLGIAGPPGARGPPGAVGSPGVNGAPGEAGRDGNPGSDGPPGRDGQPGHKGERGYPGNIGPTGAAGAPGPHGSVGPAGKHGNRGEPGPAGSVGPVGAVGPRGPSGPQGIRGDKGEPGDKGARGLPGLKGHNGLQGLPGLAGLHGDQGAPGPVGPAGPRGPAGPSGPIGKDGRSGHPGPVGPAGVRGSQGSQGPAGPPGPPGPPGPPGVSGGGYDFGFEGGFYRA

Row | Binder | % bound [1] [%] | % bound [2] [%] | % bound [3] [%] | % bound [4] [%]
1 | WWGCRQGTGEHWSHCMWF (disulfide 4-15 (inferred); not fully specified (N-terminus, C-terminus); also: Gd chelated by DTPA at both ends) [SEQ ID NO 195] | 16 | 9 | – | –
2 | YHACYQ[dA]GCWIW (disulfide 4-9 (inferred); not fully specified (C-terminus); printed as YHACYQaGCWIW, cyclic, disulfide; also called YHACYQaGCWIW) [SEQ ID NO 158] | – | – | 56 | 66
3 | GQWTCSGDEYSWHCNY[dE] (disulfide 5-14 (inferred), cyclic, disulfide) [SEQ ID NO 125] | – | – | 85 | 86
4 | GQWACSGDEYTWHCNYE (disulfide 5-14 (inferred), cyclic, disulfide) [SEQ ID NO 140] | – | – | 84 | 77
5 | GAWTCSGDEYTWHCNYE (disulfide 5-14 (inferred), cyclic, disulfide) [SEQ ID NO 129] | – | – | 87 | 84
6 | QWTCSGDEY[dT]WHCNYE (disulfide 4-13 (inferred); not fully specified (N-terminus); printed as QWTCSGDEYtWHCNYE, cyclic, disulfide) [SEQ ID NO 172] | – | – | 9 | 8
7 | DWTCS[dS]DEYTWHCNYE (disulfide 4-13 (inferred), cyclic, disulfide) [SEQ ID NO 180] | – | – | 81 | 72
8 | DWTCS[dL]DEYTWHCNYE (disulfide 4-13 (inferred), cyclic, disulfide) [SEQ ID NO 183] | – | – | 73 | 63
9 | DWTCS[dA]DEYTWHCNYE (disulfide 4-13 (inferred), cyclic, disulfide) [SEQ ID NO 179] | – | – | 81 | 75
10 | QWTCSGD[dE]YTWHCNYE (disulfide 4-13 (inferred); not fully specified (N-terminus); printed as QWTCSGDeYTWHCNYE, cyclic, disulfide) [SEQ ID NO 170] | – | – | 49 | 35
11 | GQWTCSGDEYTWHCAYE (disulfide 5-14 (inferred); not fully specified (C-terminus), cyclic, disulfide) [SEQ ID NO 149] | – | – | 82 | 82
12 | QWTCSGDEYTWHCNY[dE] (disulfide 4-13 (inferred); not fully specified (N-terminus); printed as QWTCSGDEYTWHCNYe, cyclic, disulfide) [SEQ ID NO 178] | – | – | 90 | 87
13 | DWTCS[dR]DEYTWHCNYE (disulfide 4-13 (inferred), cyclic, disulfide) [SEQ ID NO 181] | – | – | 87 | 86
14 | GQWTCSGDAYTWHCAYE (disulfide 5-14 (inferred), cyclic, disulfide) [SEQ ID NO 128] | – | – | 80 | 72
15 | [dQ]WTCSGDEYTWHCNYE (disulfide 4-13 (inferred); not fully specified (N-terminus, C-terminus); printed as qWTCSGDEYTWHCNYE, cyclic, disulfide) [SEQ ID NO 164] | – | – | 46 | 31
16 | QWTCSGDEYTWHCN[dY]E (disulfide 4-13 (inferred); not fully specified (N-terminus); printed as QWTCSGDEYTWHCNyE, cyclic, disulfide) [SEQ ID NO 177] | – | – | 30 | 27

Row | Binder | % bound [1] [%] | % bound [2] [%] | % bound [3] [%] | % bound [4] [%]
17 | Y[dH]ACYQAGCWIW (disulfide 4-9 (inferred); not fully specified (C-terminus); printed as YhACYQAGCWIW, cyclic, disulfide) [SEQ ID NO 153] | – | – | 0 | 0
18 | {Glu‑DTPA‑Gd″}-GGDWTCVGDHKTWKCNFH-NH2 (disulfide 6-15 (inferred), N-terminal G-G linker) [Compound ID 1023] | 14 | 12 | – | –
19 | YHACYQAGCWI[dW] (disulfide 4-9 (inferred); not fully specified (C-terminus); printed as YHACYQAGCWIw, cyclic, disulfide) [SEQ ID NO 162] | – | – | 18 | 14
20 | YH[dA]CYQAGCWIW (disulfide 4-9 (inferred); not fully specified (C-terminus); printed as YHaCYQAGCWIW, cyclic, disulfide) [SEQ ID NO 154] | – | – | 24 | 21
21 | YHA[dC]YQAGCWIW (disulfide 4-9 (inferred); not fully specified (C-terminus); printed as YHAcYQAGCWIW, cyclic, disulfide) [SEQ ID NO 155] | – | – | 15 | 11
22 | WWTCHMTWSGQWDSCKWH-NH2 (disulfide 4-15 (inferred); not fully specified (N-terminus); also: Gd chelated by DTPA) [SEQ ID NO 196] | 60 | 34 | – | –
23 | {Glu‑DTPA‑Gd(3)}-PPQWHCTTRFPHHYCLYG-NH2 (disulfide 6-15 (inferred), N-terminal P-P linker) [Compound ID 1024] | 70 | 55 | – | –
24 | {Glu‑DTPA‑Gd}-GQWHCTTRFPHHYCLYG (disulfide 5-14 (inferred); not fully specified (C-terminus), N-terminal G linker) [Compound ID 1022] | 36 | 38 | – | –
25 | YHAC[dY]QAGCWIW (disulfide 4-9 (inferred); not fully specified (C-terminus); printed as YHACyQAGCWIW, cyclic, disulfide; also called YHACyQAGCWIW) [SEQ ID NO 156] | – | – | 38 | 48
26 | YHACYQAGCW[dI]W (disulfide 4-9 (inferred); not fully specified (C-terminus); printed as YHACYQAGCWiW, cyclic, disulfide) [SEQ ID NO 161] | – | – | 8 | 10
27 | YHACYQAGC[dW]IW (disulfide 4-9 (inferred); not fully specified (C-terminus); printed as YHACYQAGCwIW, cyclic, disulfide) [SEQ ID NO 160] | – | – | 20 | 12
28 | {Glu‑DTPA‑Gd″-PEG(2O)}-GQWTCSGDEYTWHCNY[dE]-NH2 (disulfide 5-14 (inferred); reading uncertain, linker -PEG(2O)-G- on the N-terminus) [Compound ID 1026] | 28 | – | – | –
29 | {Glu‑DTPA‑Gd}-GQWTCSGDEYTWHCNYE (disulfide 5-14 (inferred); not fully specified (C-terminus), N-terminal G linker) [Compound ID 1021] | 48 | 13 | – | –
30 | YHACY[dQ]AGCWIW (disulfide 4-9 (inferred); not fully specified (C-terminus); printed as YHACYqAGCWIW, cyclic, disulfide; also called YHACYqAGCWIW) [SEQ ID NO 157] | – | – | 37 | 35
31 | {Glu‑DTPA‑Gd}-WWTCHMTWSGQWDSCKWH-NH2 (disulfide 4-15 (inferred)) [Compound ID 1020] | 60 | 34 | – | –

From patent US20080044360A1 (COLLAGEN MEDICAL, published 2008)
